Test [1] has as its target T1, human NKG2D expressed on EL4 cells (human, UniProt P26718 1-216).
T1 construct: whole, on cells; also called extracellular NKG2D expressed on EL4 cells; cell-expressed human NKG2D
T1 sequence (looked up): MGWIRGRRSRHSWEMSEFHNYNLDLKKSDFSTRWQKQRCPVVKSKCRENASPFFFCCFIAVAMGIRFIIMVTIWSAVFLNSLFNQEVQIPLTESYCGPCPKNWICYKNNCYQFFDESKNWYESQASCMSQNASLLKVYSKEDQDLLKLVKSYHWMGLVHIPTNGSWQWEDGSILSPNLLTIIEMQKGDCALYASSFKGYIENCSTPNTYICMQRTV
Kind of test: flow cytometry on EL4 cells expressing human NKG2D, anti-human IgG secondary, FOB of MFI. Here is the method:
EL4 mouse lymphoma cell lines were engineered to express human NKG2D. […] The binding of the multi-specific binding proteins to NKG2D was detected using fluorophore-conjugated anti-human IgG secondary antibodies. Cells were analyzed by flow cytometry, and fold-over-background (FOB) was calculated using the mean fluorescence intensity (MFI) of NKG2D-expressing cells compared to parental EL4 cells.
A general note: In flow cytometry, cells or beads pass a laser one at a time.

In test [2] the target is T2, CD33 expressed on MV4-11 human AML cells (human, UniProt P20138 18-364).
T2 construct: whole, on cells; also called cell-expressed CD33
T2 sequence (P20138 18-364): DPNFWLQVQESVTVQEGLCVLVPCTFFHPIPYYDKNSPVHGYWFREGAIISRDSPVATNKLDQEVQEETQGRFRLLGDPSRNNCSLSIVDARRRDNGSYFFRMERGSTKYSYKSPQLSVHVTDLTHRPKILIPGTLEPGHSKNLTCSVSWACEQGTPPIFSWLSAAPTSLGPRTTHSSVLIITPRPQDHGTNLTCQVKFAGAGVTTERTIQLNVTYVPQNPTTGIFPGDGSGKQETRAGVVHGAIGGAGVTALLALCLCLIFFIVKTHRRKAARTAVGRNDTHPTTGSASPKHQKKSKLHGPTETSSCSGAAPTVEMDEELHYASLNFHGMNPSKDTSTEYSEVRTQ
Kind of test: flow cytometry on MV4-11 cells, FOB of MFI. The method, then:
Human AML cell line MV4-11 expressing CD33 was used to assay the binding of TriNKETs to the tumor associated antigen. TriNKETs and the parental anti-CD33 monoclonal antibody were incubated with the cells, and the binding was detected using fluorophore-conjugated anti-human IgG secondary antibodies. Cells were analyzed by flow cytometry, and fold-over-background (FOB) was calculated using the mean fluorescence intensity (MFI) from TriNKETs and the parental monoclonal anti-CD33 antibody normalized to secondary antibody controls.

The target in test [3] is T3, Tyrp-1 on B16F10 melanoma cells (UniProt P07147 25-537, limits assumed).
T3 construct: whole, on cells; also called Tyrp-1-positive B16F10 melanoma cells
Description: flow cytometry on B16F10 tumor cells, 60 ug/mL with four-fold dilutions, goat anti-mouse PE secondary. Here is the method: (§1) 60 μg/mL of indicated antibodies with four-fold dilutions were added to 2×10⁵ B16F10 tumor cells (FIG. 58A) or EL4-mNKG2D cells (FIG. 58B). Binding was assessed using a goat anti-mouse PE secondary antibody followed by flow cytometric analysis.

For test [4], the target named is T4, murine NKG2D overexpressed on EL4 cells (EL4-mNKG2D) (mouse, UniProt O54709 1-232).
T4 construct: whole, on cells; also called EL4-mNKG2D cells
T4 sequence (looked up): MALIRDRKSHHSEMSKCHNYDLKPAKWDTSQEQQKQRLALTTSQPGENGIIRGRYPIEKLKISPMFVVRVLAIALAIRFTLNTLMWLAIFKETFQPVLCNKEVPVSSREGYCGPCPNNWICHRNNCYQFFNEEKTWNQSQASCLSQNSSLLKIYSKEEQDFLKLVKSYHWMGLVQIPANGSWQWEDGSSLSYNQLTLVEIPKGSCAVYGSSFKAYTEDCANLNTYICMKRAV
Description: flow cytometry on EL4-mNKG2D cells, 60 ug/mL with four-fold dilutions, goat anti-mouse PE secondary. The method, then:
as §1

B1: CD33-TriNKET-C26 (ADI-28226 and a CD33-binding domain) (bispecific antibody, V domains shown)
VH 1: QVQLQQWGAGLLKPSETLSLTCAVYGGSFSGYYWSWIRQPPGKGLEWIGEIDHSGSTNYNPSLKSRVTISVDTSKNQFSLKLSSVTAADTAVYYCARARGPWSFDPWGQGTLVTVSS
VL 1: DIQMTQSPSTLSASVGDRVTITCRASQSISSWLAWYQQKPGKAPKLLIYKASSLESGVPSRFSGSGSGTEFTLTISSLQPDDFATYYCQQYGSFPITFGGGTKVEIK
VH 2: QVQLVQSGAEVKKPGASVKVSCKASGYTFTDYVVHWVRQAPGQGLEWMGYINPYNDGTKYNEKFKGRVTMTRDTSISTAYMELSRLRSDDTAVYYCARDYRYEVYGMDYWGQGTLVTVSS
VL 2: DIVLTQSPASLAVSPGQRATITCTASSSVNYIHWYQQKPGQPPKLLIYDTSKVASGVPARFSGSGSGTDFTLTINPVEANDTANYYCQQWRSYPLTFGQGTKLEIK
notes: also called C26-TriNKET-CD33
On to B1, for which the binding result in test [1] and in test [2] was “binds” throughout.

B2: parental anti-CD33 monoclonal antibody (antibody, V domains shown)
VH: B1 VH 2
VL: B1 VL 2
notes: also called parental monoclonal anti-CD33 antibody; parental anti-CD33 antibody
For the molecule B2, in test [2], the binding result is on record as “binds”.

B3: mcFAE-C26.99 TriNKET (bispecific antibody, mouse IgG2c)
light 1: DIQMTQSPSTLSASVGDRVTITCRASQSISSWLAWYQQKPGKAPKLLIYKASSLESGVPSRFSGSGSGTEFTLTISSLQPDDFATYYCQQYGSFPITFGGGTKVEIKRADAAPTVSIFPPSSEQLTSGGASVVCFLNNFYPKDINVKWKIDGSERQNGVLNSWTDQDSKDSTYSMSSTLTLTKDEYERHNSYTCEATHKTSTSPIVKSFNRNEC
heavy 1: QVQLQQWGAGLLKPSETLSLTCAVYGGSFSGYYWSWIRQPPGKGLEWIGEIDHSGSTNYNPSLKSRVTISVDTSKNQFSLKLSSVTAADTAVYYCARARGPWSFDPWGQGTLVTVSSAKTTAPSVYPLAPVCGGTTGSSVTLGCLVKGYFPEPVTLTWNSGSLSSGVHTFPALLQSGLYTLSSSVTVTSNTWPSQTITCNVAHPASSTKVDKKIEPRVPITQNPCPPLKECPPCAAPDLLGGPSVFIFPPKIKDVLMISLSPMVTCVVVDVSEDDPDVQISWFVNNVEVHTAQTQTHREDYNSTLRVVSALPIQHQDWMSGKEFKCKVNNRALPSPIEKTISKPRGPVRAPQVYVLPPPAEEMTKKEFSLTCMIKGFLPAEIAVDWTSNGRTEQNYKNTATVLDSDGSYFMYSRLRVQKSTWERGSLFACSVVHEGLHNHLTTKTISRSLGK
light 2: DIQMSQSPASLSASVGETVTITCRASGNIYNYLAWYQQKQGKSPHLLVYDAKTLADGVPSRFSGSGSGTQYSLKISSLQTEDSGNYYCQHFWSLPFTFGSGTKLEIKRADAAPTVSIFPPSSEQLTSGGASVVCFLNNFYPKDINVKWKIDGSERQNGVLNSWTDQDSKDSTYSMSSTLTLTKDEYERHNSYTCEATHKTSTSPIVKSFNRNEC
heavy 2: EVQLQQSGAELVRPGALVKLSCKTSGFNIKDYFLHWVRQRPDQGLEWIGWINPDNGNTVYDPKFQGTASLTADTSSNTVYLQLSGLTSEDTAVYFCTRRDYTYEKAALDYWGQGASVIVSSAKTTAPSVYPLAPVCGGTTGSSVTLGCLVKGYFPEPVTLTWNSGSLSSGVHTFPALLQSGLYTLSSSVTVTSNTWPSQTITCNVAHPASSTKVDKKIEPRVPITQNPCPPLKECPPCAAPDLLGGPSVFIFPPKIKDVLMISLSPMVTCVVVDVSEDDPDVQISWFVNNVEVHTAQTQTHREDYNSTLRVVSALPIQHQDWMSGKEFKCKVNNRALPSPIEKTISKPRGPVRAPQVYVLPPPAEEMTKKEFSLTCMITGFLPAEIAVDWTSNGRTEQNYKNTATVLDSDGSYLMYSKLTVQKSTWERGSLFACSVVHEGLHNHLTTKTISRSLGK
notes: also called murine cFAE-C26.99 TriNKET; TA99 TriNKET (mcFAE-C26.99)
Regarding B3, the binding result in test [3] and in test [4] was “binds” in each case.

Values taken from US20210079102A1 (DRAGONFLY THERAPEUTICS, published 2021).
